Here are results for one substance from US20100056764A1.

pIC50, pKd: −log10 of the molar value. Several values for one entry are separate records, joined by “and”; a condition that tells them apart may be missing. Equal values may be shown once. Read-outs that look alike come from different tables or passages of the source.

Assay [1] has as its target human NKG2D (hNKG2D) on the cell surface (human) (UniProt P26718). In words: flow cytometry, dose-response on NKG2D- and DAP10-expressing BaF/3 cells. (In general: A flow cytometer gives signals particle by particle.)
Assay [2] shares this target. In words: flow cytometry, dose-response on NKG2D- and DAP10-expressing BaF/3 cells, y axis % of max binding.
For assay [3] the target is unchanged. In words: cell-based or functional assay.
The target is the same in assay [4]. In words: flow cytometry, NKG2D/DAP10 BaF/3 cells pre-incubated with antibody, then 1 µg hFc-MICA (competitor).
Assay [5] shares this target. Nature of the assay: flow cytometry blocking assay on NKG2D/DAP10-expressing BaF/3 cells: pre-incubation with the antibody, then 1 µg MICA-Fc (hFc-MICA, m12, for ON72 according to paragraph 390); y axis % remaining MICA-Fc binding.
Assay [6] shares this target. In words: flow cytometry, NKG2D-expressing cells pre-incubated with ON72 (0.3 µg), then 16F16 IgG4 (0.3 µg, competitor); legend of FIG. 9A.
Assay [7] shares this target. In words: flow cytometry, NKG2D/DAP10 BaF/3 cells pre-incubated with antibody, then 1 µg hFc-MICA (competitor). This is another data set of the same source.
Assay [8] has as its target recombinant NKG2D-Fc protein (R&D Systems), immobilized on a Biacore CM5 chip (human) (UniProt P26718). In words: SPR (Biacore), NKG2D-Fc immobilized on CM5 chip, antibody in solution. On the technique in general: Surface plasmon resonance follows binding to a sensor surface in real time, without labels.
The target of assay [9] is human NKG2D (hNKG2D) on the cell surface (human) (UniProt P26718). In words: flow cytometry, NKG2D-expressing cells pre-incubated with ON72, then recombinant 16F16 (competitor).
Chain of human NKG2D (hNKG2D) on the cell surface (human) (P26718 whole entry T72A): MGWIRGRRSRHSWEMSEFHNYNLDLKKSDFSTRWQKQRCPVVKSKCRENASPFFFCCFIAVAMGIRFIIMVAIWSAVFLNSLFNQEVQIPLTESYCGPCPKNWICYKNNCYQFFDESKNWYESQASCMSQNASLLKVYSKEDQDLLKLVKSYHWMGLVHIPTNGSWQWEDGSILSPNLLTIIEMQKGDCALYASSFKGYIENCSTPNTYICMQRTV

Chain of recombinant NKG2D-Fc protein (R&D Systems), immobilized on a Biacore CM5 chip (human) (P26718 78-216): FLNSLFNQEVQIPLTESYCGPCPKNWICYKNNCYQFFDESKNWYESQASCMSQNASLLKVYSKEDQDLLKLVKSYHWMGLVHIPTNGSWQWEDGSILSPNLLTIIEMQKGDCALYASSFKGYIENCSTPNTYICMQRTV

With “ON72, commercially available murine anti-hNKG2D monoclonal antibody (Beckman Coulter Inc.)”, the concentration for a half-maximal effect (EC50) (in general, the concentration that produces a half-maximal response) in assay [1] was 0.062 µg/mL and 0.048 nM. Further, in assay [2], the EC50 (read off the curve) – broadly, the concentration giving half of the maximal effect – is 60 pM. In addition, in assay [3], the % proliferation of PBMC, stimulation CD3 0.1 + CD28 + ON72 (immobilized antibodies) was found to be 22.9%; the % proliferation of PBMC, stimulation CD3 0.1 + ON72 (immobilized antibodies) turned out to be 7.12%; the % proliferation of PBMC, stimulation CD3 0.3 + CD28 + ON72 (immobilized antibodies) was 40.1%; the % proliferation of PBMC, stimulation CD3 0.3 + ON72 (immobilized antibodies) was found to be 28.4%. In [3], the EC50 (µg/ml), inhibition of NK cell killing of ULPB3-expressing target cells (51Cr release) was found to be 0.065 µg/mL; the down-modulation of cell-surface NKG2D, NKG2D/DAP10 BaF/3 cells, overnight incubation turned out to be 55%; the internalization of NKG2D at 1 h, NKG2D+ lymphocytes in whole blood, 0.1 µg/ml was 50 to 75%; the internalization of NKG2D at 24 h, NKG2D+ lymphocytes in whole blood, 0.1 µg/ml worked out at 100%. In addition, in [4], the IC50 (commonly the concentration that inhibits the measured activity by half) came out at 0.019 µg/mL and the full blockade of 1 µg MICA-Fc (antibody concentration) is 0.54 µg/mL. The same substance yielded an IC50 (read off the curve) in assay [5] of 20 pM. In [6], this substance had a % of 16F16 binding prevented of 85%. Moreover, in [7], the pIC50 (as a rule, −log10 of the IC50, conventionally taken in molar units) was 10.70 and the full blockade of 1 µg MICA-Fc (antibody concentration) was 0.24 nM. In addition, in [8], the negative-log Kd (pKd) (in general, the negative decadic logarithm of the Kd, by convention in mol/L) was 9.77; the koff (usually a measure of how fast the partners let go of each other) was 0.00011 s⁻¹; the kon (commonly the second-order rate constant of association) is 960000 M⁻¹ s⁻¹. Moreover, in assay [9], the % of 16F16 binding blocked is 82%.
